This note sets out measurements from patent US20120129778A1 (GlaxoSmithKline, published 2012).

Assay [1] deals with T1, recombinant human TGF-β RII/Fc chimera protein (R&D systems, cat no. 341-BR) (human, UniProt P37173 23-166).
T1 construct: extracellular domain; Bought protein, expressed in the mouse myeloma line NS0; also called hTGFb-RII/Fc; hTFGβ-RII-Fc; not shown: Fc region of human IgG1
Nature of the assay: ELISA, plate coated with human TGF-β RII/Fc, dAb supernatant, anti-FLAG detection. On the procedure:
dAb clones that bound human TGF-β RII/Fc were identified by an ELISA. 96-well MAXISORP™ immuno plates (Nunc, Denmark) were coated with human TGF-β RII/Fc overnight at 4° C. The wells were washed three times with PBST and then blocked with 1% TWEEN™ in PBS (1% TPBS) for 1 hour at room temperature. The block was removed and a 1:1 mixture of 1% TPBS and dAb supernatant was added for 1 hour at room temperature. The plate was washed with three times with PBST and the detection antibody (Monoclonal anti-FLAG M2-peroxidase antibody, Sigma-aldrich, UK) was added and incubated for 1 hour at room temperature. The plates were developed using a colourimetric substrate (SUREBLUE™ 1-component TMB Microwell Peroxidase solution, KPL, Maryland, USA) and the optical density (OD) measured at […], the OD₄₅₀ being proportional to the amount of bound detection antibody.

The target in assay [2] is human TGF-β receptor type II on human cells (A549, SBE-bla HEK 293T) (human, UniProt P37173 23-567). Nature of the assay: cell-based or functional assay.
Chain of human TGF-β receptor type II on human cells (A549, SBE-bla HEK 293T) (P37173 23-567): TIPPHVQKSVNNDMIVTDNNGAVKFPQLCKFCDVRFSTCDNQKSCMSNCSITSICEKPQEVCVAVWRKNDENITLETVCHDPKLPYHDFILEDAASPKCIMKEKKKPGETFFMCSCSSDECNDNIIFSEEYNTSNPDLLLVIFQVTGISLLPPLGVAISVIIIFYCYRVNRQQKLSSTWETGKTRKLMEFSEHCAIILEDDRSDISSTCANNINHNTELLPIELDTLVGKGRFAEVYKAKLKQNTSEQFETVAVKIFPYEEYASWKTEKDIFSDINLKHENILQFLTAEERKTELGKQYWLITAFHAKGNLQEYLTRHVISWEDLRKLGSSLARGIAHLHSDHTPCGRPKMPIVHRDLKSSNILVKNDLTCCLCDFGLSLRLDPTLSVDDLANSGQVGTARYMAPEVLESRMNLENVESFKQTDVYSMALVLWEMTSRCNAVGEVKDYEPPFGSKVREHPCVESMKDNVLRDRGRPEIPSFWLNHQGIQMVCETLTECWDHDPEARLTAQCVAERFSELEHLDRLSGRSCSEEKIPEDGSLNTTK
Assay [3] addresses T1, recombinant human TGF-β RII/Fc chimera …. Nature of the assay: SPR (BIACORE 3000), hTGFb-RII/Fc coupled to a CM5 chip, co-inject; injection 2 = mixture of DOM23h-437-6 (100 nM) and DOM23h-271-3 (500 nM) on a surface saturated with DOM23h-437-6. The protocol:
(§1) The SPR experiments were performed on a BIACORE™ 3000 instrument (BIACORE™, GE […]®, Sweden). hTGFb-RII/Fc antigen at 50 ug/ml in 10 mM sodium acetate buffer, pH 4 (BIACORE™, GE […]®, Sweden) was coupled to a CM5 sensor chip (BIACORE™, GE […]®, Sweden), according to the manufacturer's instructions. Approximately 5500 RUs of antigen were coupled. A blank flow cell was used as a reference. Purified dAbs were diluted in HBS-EP buffer (BIACORE™, GE […]®, Sweden) and flowed over the antigen-coated and blank flow cells at a rate of 30 μl/minute using the co-inject command. The coinject command allows the injection of a second sample immediately after the first one. The first injection consisted of a single dAb and the second injection consisted of a mixture of the first dAb and a second dAb. All dAbs were used at concentrations high enough to bind the antigen surface with maximal capacity. If the maximal binding capacity of the antigen surface by the first dAb can be exceeded by injecting the mixture of the two dAbs, the second dAb is likely to […] a different binding site or epitope on the antigen. If no further binding is observed following the second injection, then the two dAbs are likely to compete for the same antigen binding site. […]
On the technique in general: SPR reads the build-up and loss of mass on a sensor chip optically.

The target is the same in assay [4]. Nature of the assay: SPR (BIACORE 3000), hTGFb-RII/Fc coupled to CM5 chip, 100 nM dAb co-injected with 100 nM DOM23h-437-9 (competitor). On the procedure: as §1
The target is the same in assay [5]. Nature of the assay: SPR (BIACORE 3000), hTGFb-RII/Fc coupled to a CM5 chip, co-inject; injection 2 = mixture of DOM23h-437-6 (100 nM) and DOM23h-439-6 (500 nM) on a surface saturated with DOM23h-437-6. The protocol:
as §1

For assay [6] the target is unchanged. Nature of the assay: SPR (BIACORE 3000), hTGFb-RII/Fc coupled to a CM5 chip, co-inject; injection 1 = DOM23h-437-9 alone at 100 nM. The protocol: as §1
Assay [7] shares this target. Nature of the assay: SPR (BIACORE 3000), hTGFb-RII/Fc coupled to a CM5 chip, co-inject; injection 1 = DOM23h-437-6 alone at 100 nM. On the procedure: as §1

T1 sequence (P37173 23-166, change not shown): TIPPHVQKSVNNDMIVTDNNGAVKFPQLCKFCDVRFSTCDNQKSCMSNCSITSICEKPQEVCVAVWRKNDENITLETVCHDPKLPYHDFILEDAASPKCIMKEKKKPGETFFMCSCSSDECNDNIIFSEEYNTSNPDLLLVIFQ

B1: DOM23h-438 (other)
chain: EVQLLESGGGLVQPGGSLRLSCAASGFTFAQGDMWWVRQAPGKGLEWVSRIGMDGDKTYYADSVKGRFTISRDNSKNTLYLQMNSLRAEDTAVYYCAKGPSSTSPFDYWGQGTLVTVSS
notes: Naive dAb
In the case of B1, the binding result in assay [1] is reported as “binds”.

B2: DOM23h-348 (other)
chain: EVQLLESGGGLVQPGGSLRLSCAASGFTFSDYDMAWARQAPGKGLEWVSRISHSGYSTYYADSVKGRFTISRDNSKNTLYLQMNSLRAEDTAVYYCAKRSWDGVHAQFDYWGQGTLVTVSS
notes: Naive dAb
Take B2: the binding result in assay [1] was “binds”.

B3: DOM23h-262-6 (other)
VH: EVQLLESGGGLVQPGGSLRLSCAASGFTFFNYEMAWARQAPGKGLEWVSLISAEGTRTYYANSVKGRFTISRDNSKNTLYLQMNSLRAEDTAVYYCAKRRDASMGHTTRRFDHWGQGTLVTVSS
As to B3, the “potency in the A549 IL-11 release assay relative to DOM23h-262” value in assay [2] worked out at 54 fold.

B4: DOM23h-262 (other)
VH: EVQLLESGGGLVQPGGSLRLSCAASGFTFFNYEMAWARQAPGKGLEWVSLISAEGTRTYYADSVKGRFTISRDNSKNTLYLQMNSLRAEDTAVYYCAKRRDASMGHTTRRFDYWGQGTLVTVSS
notes: Domain antibody (dAb), human immunoglobulin single variable domain, soluble monomer
On to B4, for which the binding result in assay [1] was “binds”.

B5: DOM23h-262-10 (other)
VH: EVQLLESGGGLVQPGGSLRLSCAASGFTFFNYEMAWARRAPGKGLEWVSLISADGTRTYYANSVRGRFTISRDNSKNTLYLQMNSLRAEDTAVYYCAKRRDASMGHTTRRFDYSGQGTLVTVSS
B5: the “potency in the A549 IL-11 release assay relative to DOM23h-262” value in assay [2] was found to be 540 fold.

B6: DOM23h-271-3 (other)
VH: EVQLLESGGGLVQPGGSLRLSCTASGFTFTEYRMWWVRQAPGKGLEWVSLIEPIGNRTYYADSVKGRFTISRDNSKNTLYLQMNSLRAEDTAVYYCAKQIPGHMWTANPRSDYWGQGTQVTVSS
notes: VH dAb
Turning to B6, in assay [3], the binding result is listed as “binds”.

B7: DOM23h-271 (other)
VH: EVQLLESGGGLVQPGGSLRLSCAASGFTFTEYRMWWVRQAPGKGLEWVSSIEPIGNRTYYADSVKGRFTISRDNSKNTLYLQMNSLRAEDTAVYYCAKQIPGHKWTANSRFDYWGQGTLVTVSS
notes: VH dAb
For the molecule B7, the binding result in assay [1] was “binds”.

B8: DOM23h-271-12 (other)
VH: EVQLLESGGGLVQPGGSLRLSCTASGFTFTEYRMWWVRQAPGKGLEWVSLIEPIGNRTYYANSVRGRFTISRDNSKNTLYLQMNSLRAEDTAVYYCAKQIPGHMWTANPRSDYWGQGTQVTVSS
notes: VH dAb; also called DOM23h-271-3 + D61N + K64R
For B8, in assay [4], the binding result is given as “binds”.

B9: DOM23h-439-6 (other)
VH: EVQLLESGGGLVRPGGSLRLSCAASGFTFGTEQMWWVRQAPGKGLEWVSRIDSPGGRTYYADSVRGRFTISRDNSKNTLYLQMNSLRAEDTAVYYCAKRHAAGVSGTYFDYWGQGTLVTVSS
notes: VH dAb, already contains K64R
Turning to B9, the binding result in assay [5] is on record as “binds”.

B10: DOM23h-439-8 (other)
VH: EVQLLESGGGLVRPGGSLRLSCAASGFTFGTEQMWWVRQAPGKGLEWVSRIDSPGGRTYYANSVRGRFTISRDNSKNTLYLQMNSLRAEDTAVYYCAKRHAAGVSGTYFDYWGQGTLVTVSS
notes: VH dAb; also called DM23h-439-8; DOM23h-439-6 + D61N + K64R
For the molecule B10, the binding result in assay [4] is “binds”.

B11: DOM23h-439 (other)
VH: EVQLLESGGGLVQPGGSLRLSCAASGFTFGTEQMWWVRQAPGKGLEWVSRIDSPGGRTYYADSVKGRFTISRDNSKNTLYLQMNSLRAEDTAVYYCAKRHAAGVSGTYFDYWGQGTLVTVSS
notes: VH dAb
On to B11, for which the binding result in assay [1] is recorded as “binds”.

B12: DOM23h-437 (other)
VH: EVQLLESGGGLVQPGGSLRLSCAASGFTFSDYRMWWVRQAPGKGLEWVSAIDSQGHTTYYADSVKGRFTISRDNSKNTLYLQMNSLRAEDTAVYYCAKYGGYFDYWGQGTLVTVSS
notes: VH dAb
B12: the binding result in assay [1] is on record as “binds”.

B13: DOM23h-440 (other)
chain: EVQLLESGGGLVQPGGSLRLSCAASGFTFTDDRMWWVRQAPGKGLEWVSAIDPQGQHTYYADSVKGRFTISRDNSKNTLYLQMNSLRAEDTAVYYCAKELLSFDYWGQGTLVTVSS
notes: Naive dAb
For the molecule B13, the binding result in assay [1] was “binds”.

B14: DOM23h-33 (other)
chain: EVQLLESGGGLVQPGGSLRLSCAASGFTFSQYRMWWVRQAPGKGLEWVSAIAPSGDNTYYADSVKGRFTISRDNSKNTLYLQMNSLRAEDTAVYYCAKHRTSFDYWGQGTLVTVSS
notes: Naive dAb (immunoglobulin single variable domain)
Take B14: the binding result in assay [1] is given as “binds”.

B15: DOM23h-437-9 (other)
VH: EVQLLESGGGLVQPGGSLRLSCATSGFTFSDYRMWWVRQAPGKGLEWVSAIDSQGHTTYYANSVRGRFTISRDNSKNTLYLQMNSLRAEDTAVYYCAKYGGYFDYWGQGTLVTVSS
notes: VH dAb; also called DOM437-9
Take B15: the binding result in assay [6] is given as “binds”.

B16: DOM23h-437-6 (other)
VH: EVQLLESGGGLVQPGGSLRLSCATSGFTFSDYRMWWVRQAPGKGLEWVSAIDSQGHTTYYADSVKGRFTISRDNSKNTLYLQMNSLRAEDTAVYYCAKYGGYFDYWGQGTLVTVSS
notes: VH dAb
As for B16, the binding result in assay [7] is recorded as “binds”.

B17: DOM23h-436 (other)
chain: EVQLLESGGGLVQPGGSLRLSCAASGFTFSDYKMGWVRQAPGKGLEWVSSIWPNGGLTYYADSVKGRFTISRDNSKNTLYLQMNSLRAEDTAVYYCAKDHMGFDYWGQGTLVTVSS
notes: Naive dAb
For B17, the binding result in assay [1] is given as “binds”.

B18: DOM23h-251 (other)
chain: EVQLLESGGGLVQPGGSLRLSCAASGFTFSDYDMWWVRQAPGKGLEWVSKITQKGDFTYYADSVKGRFTISRDNSKNTLYLQMNSLRAEDTAVYYCAKDATHFDYWGQGTLVTVSS
notes: Naive dAb
In the case of B18, the binding result in assay [1] is reported as “binds”.

B19: DOM23h-435 (other)
chain: EVQLLESGGGLVQPGGSLRLTCAASGFTFTDDRMWWVRQAPGKGLEWVSAIDPQGQHTYYADSVKGRFTISRDNSKNTLYLQMNSLRAEDTAVYYCAKHNSSFDYWGQGTLVTVSS
notes: Naive dAb
B19: the binding result in assay [1] is reported as “binds”.
